Literature values, collected in PMC3020241.
pKd: −log10 of the molar value.

Biological target: arrestin-1 (dimer) (Mus musculus) (UniProt P20443)

pKd: 4.24
Substance: arrestin-1 (from UniProt P20443)
